# Data reported in US20200270325A1 (Merck Sharp & Dohme, published 2020).
# Numbered stars: 1 amine (or outer) side, 2 acyl side, 3 side chain; on linkers, the order of the positions; unused ones are H or OH. Square brackets hold non-standard residues; d marks the D form. Side chains are listed from the residue outwards. Ends that are not written are not given here. * marks the point of attachment. Phe(4-CH2NH2) = NCc1ccc(C[C@H](N)C(=O)O)cc1; C18 diacid = O=C(O)CCCCCCCCCCCCCCCCC(=O)*; C16 diacid = O=C(O)CCCCCCCCCCCCCCC(=O)*; γGlu = O=C(O)[C@H](CCC(=O)[*:2])N[*:1]; Met(O2) = CS(=O)(=O)CC[C@H](N)C(=O)O; αMeD = C[C@](N)(CC(=O)O)C(=O)O; AEEA = NCCOCCOCC(=O)O; Aib = CC(C)(N)C(=O)O; C16 = lipid (C16)
# B1: TP605 (peptide)
# peptide: H[Aib]QGTFTSDYSKYLDARAAQDFVQWL[Met(O2)][Phe(4-CH2NH2)]([AEEA-AEEA-γGlu-C20‑OH])T-NH2
# B2: TP607 (peptide)
# peptide: H[Aib]QGTFTSDK([γGlu-γGlu-C16])SKYLDARAAQDFVK([AEEA-AEEA-γGlu-C16 diacid])WL[Met(O2)][αMeD]T-NH2
# B3: TP603 (peptide)
# peptide: H[Aib]QGTFTSDYSKYLDARAAQDFVQWL[Met(O2)]K([AEEA-AEEA-γGlu-C20‑OH])T-NH2
# B4: TP601 (peptide)
# peptide: H[Aib]QGTFTSDK([γGlu-γGlu-C16])SKYLDARAAK([AEEA-AEEA-γGlu-C18 diacid])DFVQWL[Met(O2)]DT-NH2
# B5: TP595 (peptide)
# peptide: H[Aib]QGTFFSDYSKYLDARAAK([AEEA-AEEA-γGlu-C18 diacid])DFVQWL[Met(O2)]DT-NH2
# modifications: N-terminus assumed
# SMILES: CC(C)C[C@H](NC(=O)[C@H](Cc1ccc(O)cc1)NC(=O)[C@H](CCCCN)NC(=O)[C@H](CO)NC(=O)[C@H](Cc1ccc(O)cc1)NC(=O)[C@H](CC(=O)O)NC(=O)[C@H](CO)NC(=O)[C@H](Cc1ccccc1)NC(=O)[C@H](Cc1ccccc1)NC(=O)[C@@H](NC(=O)CNC(=O)[C@H](CCC(N)=O)NC(=O)C(C)(C)NC(=O)[C@@H](N)Cc1c[nH]cn1)[C@@H](C)O)C(=O)N[C@@H](CC(=O)O)C(=O)N[C@@H](C)C(=O)N[C@@H](CCCNC(=N)N)C(=O)N[C@@H](C)C(=O)N[C@@H](C)C(=O)N[C@@H](CCCCNC(=O)COCCOCCNC(=O)COCCOCCNC(=O)CC[C@H](NC(=O)CCCCCCCCCCCCCCCCC(=O)O)C(=O)O)C(=O)N[C@@H](CC(=O)O)C(=O)N[C@@H](Cc1ccccc1)C(=O)N[C@H](C(=O)N[C@@H](CCC(N)=O)C(=O)N[C@@H](Cc1c[nH]c2ccccc12)C(=O)N[C@@H](CC(C)C)C(=O)N[C@@H](CCS(C)(=O)=O)C(=O)N[C@@H](CC(=O)O)C(=O)N[C@H](C(N)=O)[C@@H](C)O)C(C)C
# B6: TP596 (peptide)
# peptide: H[Aib]QGTFLSDYSKYLDARAAK([AEEA-AEEA-γGlu-C18 diacid])DFVQWL[Met(O2)]DT-NH2
# modifications: N-terminus assumed
# SMILES: CC(C)C[C@H](NC(=O)[C@H](Cc1ccc(O)cc1)NC(=O)[C@H](CCCCN)NC(=O)[C@H](CO)NC(=O)[C@H](Cc1ccc(O)cc1)NC(=O)[C@H](CC(=O)O)NC(=O)[C@H](CO)NC(=O)[C@H](CC(C)C)NC(=O)[C@H](Cc1ccccc1)NC(=O)[C@@H](NC(=O)CNC(=O)[C@H](CCC(N)=O)NC(=O)C(C)(C)NC(=O)[C@@H](N)Cc1c[nH]cn1)[C@@H](C)O)C(=O)N[C@@H](CC(=O)O)C(=O)N[C@@H](C)C(=O)N[C@@H](CCCNC(=N)N)C(=O)N[C@@H](C)C(=O)N[C@@H](C)C(=O)N[C@@H](CCCCNC(=O)COCCOCCNC(=O)COCCOCCNC(=O)CC[C@H](NC(=O)CCCCCCCCCCCCCCCCC(=O)O)C(=O)O)C(=O)N[C@@H](CC(=O)O)C(=O)N[C@@H](Cc1ccccc1)C(=O)N[C@H](C(=O)N[C@@H](CCC(N)=O)C(=O)N[C@@H](Cc1c[nH]c2ccccc12)C(=O)N[C@@H](CC(C)C)C(=O)N[C@@H](CCS(C)(=O)=O)C(=O)N[C@@H](CC(=O)O)C(=O)N[C@H](C(N)=O)[C@@H](C)O)C(C)C
# B7: TP583 (peptide)
# peptide: H[Aib]QGTFTSDYSKYLDARAAQDFV[Phe(4-CH2NH2)]([AEEA-AEEA-γGlu-C18 diacid])WLLDT-NH2
# modifications: N-terminus assumed
# SMILES: CC(C)C[C@H](NC(=O)[C@H](Cc1ccc(O)cc1)NC(=O)[C@H](CCCCN)NC(=O)[C@H](CO)NC(=O)[C@H](Cc1ccc(O)cc1)NC(=O)[C@H](CC(=O)O)NC(=O)[C@H](CO)NC(=O)[C@@H](NC(=O)[C@H](Cc1ccccc1)NC(=O)[C@@H](NC(=O)CNC(=O)[C@H](CCC(N)=O)NC(=O)C(C)(C)NC(=O)[C@@H](N)Cc1c[nH]cn1)[C@@H](C)O)[C@@H](C)O)C(=O)N[C@@H](CC(=O)O)C(=O)N[C@@H](C)C(=O)N[C@@H](CCCNC(=N)N)C(=O)N[C@@H](C)C(=O)N[C@@H](C)C(=O)N[C@@H](CCC(N)=O)C(=O)N[C@@H](CC(=O)O)C(=O)N[C@@H](Cc1ccccc1)C(=O)N[C@H](C(=O)N[C@@H](Cc1ccc(CNC(=O)COCCOCCNC(=O)COCCOCCNC(=O)CC[C@H](NC(=O)CCCCCCCCCCCCCCCCC(=O)O)C(=O)O)cc1)C(=O)N[C@@H](Cc1c[nH]c2ccccc12)C(=O)N[C@@H](CC(C)C)C(=O)N[C@@H](CC(C)C)C(=O)N[C@@H](CC(=O)O)C(=O)N[C@H](C(N)=O)[C@@H](C)O)C(C)C
# B8: TP602 (peptide)
# peptide: H[Aib]QGTFTSDYSKYLDARAAQDFVQWL[Met(O2)]K([AEEA-AEEA-γGlu-C18 diacid])T-NH2
# modifications: N-terminus assumed
# SMILES: CC(C)C[C@H](NC(=O)[C@H](Cc1ccc(O)cc1)NC(=O)[C@H](CCCCN)NC(=O)[C@H](CO)NC(=O)[C@H](Cc1ccc(O)cc1)NC(=O)[C@H](CC(=O)O)NC(=O)[C@H](CO)NC(=O)[C@@H](NC(=O)[C@H](Cc1ccccc1)NC(=O)[C@@H](NC(=O)CNC(=O)[C@H](CCC(N)=O)NC(=O)C(C)(C)NC(=O)[C@@H](N)Cc1c[nH]cn1)[C@@H](C)O)[C@@H](C)O)C(=O)N[C@@H](CC(=O)O)C(=O)N[C@@H](C)C(=O)N[C@@H](CCCNC(=N)N)C(=O)N[C@@H](C)C(=O)N[C@@H](C)C(=O)N[C@@H](CCC(N)=O)C(=O)N[C@@H](CC(=O)O)C(=O)N[C@@H](Cc1ccccc1)C(=O)N[C@H](C(=O)N[C@@H](CCC(N)=O)C(=O)N[C@@H](Cc1c[nH]c2ccccc12)C(=O)N[C@@H](CC(C)C)C(=O)N[C@@H](CCS(C)(=O)=O)C(=O)N[C@@H](CCCCNC(=O)COCCOCCNC(=O)COCCOCCNC(=O)CC[C@H](NC(=O)CCCCCCCCCCCCCCCCC(=O)O)C(=O)O)C(=O)N[C@H](C(N)=O)[C@@H](C)O)C(C)C
# B9: TP587 (peptide)
# peptide: H[Aib]QGTFTSDYSKYLDERAA[Phe(4-CH2NH2)]([AEEA-AEEA-γGlu-C18 diacid])DFVQWLLKT-NH2
# modifications: N-terminus assumed
# SMILES: CC(C)C[C@H](NC(=O)[C@H](Cc1ccc(O)cc1)NC(=O)[C@H](CCCCN)NC(=O)[C@H](CO)NC(=O)[C@H](Cc1ccc(O)cc1)NC(=O)[C@H](CC(=O)O)NC(=O)[C@H](CO)NC(=O)[C@@H](NC(=O)[C@H](Cc1ccccc1)NC(=O)[C@@H](NC(=O)CNC(=O)[C@H](CCC(N)=O)NC(=O)C(C)(C)NC(=O)[C@@H](N)Cc1c[nH]cn1)[C@@H](C)O)[C@@H](C)O)C(=O)N[C@@H](CC(=O)O)C(=O)N[C@@H](CCC(=O)O)C(=O)N[C@@H](CCCNC(=N)N)C(=O)N[C@@H](C)C(=O)N[C@@H](C)C(=O)N[C@@H](Cc1ccc(CNC(=O)COCCOCCNC(=O)COCCOCCNC(=O)CC[C@H](NC(=O)CCCCCCCCCCCCCCCCC(=O)O)C(=O)O)cc1)C(=O)N[C@@H](CC(=O)O)C(=O)N[C@@H](Cc1ccccc1)C(=O)N[C@H](C(=O)N[C@@H](CCC(N)=O)C(=O)N[C@@H](Cc1c[nH]c2ccccc12)C(=O)N[C@@H](CC(C)C)C(=O)N[C@@H](CC(C)C)C(=O)N[C@@H](CCCCN)C(=O)N[C@H](C(N)=O)[C@@H](C)O)C(C)C
# B10: TP606 (peptide)
# peptide: H[Aib]QGTFTSDK([γGlu-γGlu-C16])SKYLDARAAK([AEEA-AEEA-γGlu-C16 diacid])DFVQWL[Met(O2)]DT-NH2
# B11: TP599 (peptide)
# peptide: H[Aib]QGTFTSDYSKYLDALAAK([AEEA-AEEA-γGlu-C18 diacid])DFVQWL[Met(O2)]DT-NH2
# modifications: N-terminus assumed
# SMILES: CC(C)C[C@H](NC(=O)[C@H](C)NC(=O)[C@H](CC(=O)O)NC(=O)[C@H](CC(C)C)NC(=O)[C@H](Cc1ccc(O)cc1)NC(=O)[C@H](CCCCN)NC(=O)[C@H](CO)NC(=O)[C@H](Cc1ccc(O)cc1)NC(=O)[C@H](CC(=O)O)NC(=O)[C@H](CO)NC(=O)[C@@H](NC(=O)[C@H](Cc1ccccc1)NC(=O)[C@@H](NC(=O)CNC(=O)[C@H](CCC(N)=O)NC(=O)C(C)(C)NC(=O)[C@@H](N)Cc1c[nH]cn1)[C@@H](C)O)[C@@H](C)O)C(=O)N[C@@H](C)C(=O)N[C@@H](C)C(=O)N[C@@H](CCCCNC(=O)COCCOCCNC(=O)COCCOCCNC(=O)CC[C@H](NC(=O)CCCCCCCCCCCCCCCCC(=O)O)C(=O)O)C(=O)N[C@@H](CC(=O)O)C(=O)N[C@@H](Cc1ccccc1)C(=O)N[C@H](C(=O)N[C@@H](CCC(N)=O)C(=O)N[C@@H](Cc1c[nH]c2ccccc12)C(=O)N[C@@H](CC(C)C)C(=O)N[C@@H](CCS(C)(=O)=O)C(=O)N[C@@H](CC(=O)O)C(=O)N[C@H](C(N)=O)[C@@H](C)O)C(C)C
# Molecular target: human Glucagon receptor (GCGR) (human, UniProt P47871 26-477)
# Assay: cell-based or functional assay
# Chain of human Glucagon receptor (GCGR) (P47871 26-477): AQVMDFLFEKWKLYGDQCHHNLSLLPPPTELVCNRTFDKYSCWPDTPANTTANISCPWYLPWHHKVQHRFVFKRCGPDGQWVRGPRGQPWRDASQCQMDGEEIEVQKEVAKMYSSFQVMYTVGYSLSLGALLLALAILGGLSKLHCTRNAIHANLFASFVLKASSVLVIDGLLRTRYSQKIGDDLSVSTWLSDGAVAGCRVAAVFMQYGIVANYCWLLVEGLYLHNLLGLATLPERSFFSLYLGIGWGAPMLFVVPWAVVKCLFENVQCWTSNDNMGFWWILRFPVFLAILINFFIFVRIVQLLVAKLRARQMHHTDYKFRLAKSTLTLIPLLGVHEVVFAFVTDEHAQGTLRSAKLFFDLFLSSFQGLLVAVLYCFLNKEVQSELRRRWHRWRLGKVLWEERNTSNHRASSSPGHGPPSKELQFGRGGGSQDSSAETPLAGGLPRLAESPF
row,Binder,GCGR EC50 human [nM]
1,B1,3.75
2,B2,0.57
3,B3,1.88
4,B4,1.8
5,B5,0.4
6,B6,0.35
7,B7,6.37
8,B8,2.17
9,B9,2.49
10,B10,1.01
11,B11,3.47

# Molecular target: human GLP-1 receptor (GLP1R) (human, UniProt P43220 24-463)
# Assay: cell-based or functional assay
row,Binder,GLP1R EC50 human [nM]
1,B1,1.98
2,B2,1.06
3,B3,1.17
4,B4,8.5
5,B5,> 20
6,B6,> 20
7,B7,0.74
8,B8,0.36
9,B9,0.41
10,B10,1.84
11,B11,2.21
